Data as given in patent publication US20160058881A1, “PRODRUGS WITH PROLONGED ACTION” (INDIANA UNIVERSITY RESEARCH AND TECHNOLOGY CORPORATION, priority 2013, published 2016).
Non-standard residues stand in square brackets, D forms with d. Groups on a side chain read outwards from the residue. No end group written: not given here. Phe(4-NH2) = Nc1ccc(C[C@H](N)C(=O)O)cc1; Aib = CC(C)(N)C(=O)O; Sar = CNCC(=O)O

molecular target: GLP-1 receptor (UniProt P43220 24-463, limits assumed); assay: cell-based or functional assay

Row | Binder | Relative activity to GLP-1 standard, luciferase cAMP reporter assay, sample after 0 d in 20% human plasma at 37 C [%] | Relative activity to GLP-1 standard, luciferase cAMP reporter assay, sample after 1 d in 20% human plasma at 37 C [%] | Relative activity to GLP-1 standard, luciferase cAMP reporter assay, sample after 5 d in 20% human plasma at 37 C [%] | Restored (percent, 0 d; not defined in the filing, matches the ratio to the parent peptide at the same time) [%] | Restored (percent, 1 d; not defined in the filing, matches the ratio to the parent peptide at the same time) [%] | Restored (percent, 5 d; not defined in the filing, matches the ratio to the parent peptide at the same time) [%]
1 | F[Aib]EGTFTSD[Phe(4-NH2)]([Lys-C20 acyl])SIYLDKQAA[Aib]EFVNWLLAGGPSSGAPPPS-NH2 (also: acylated amino group of the Lys not given here) | 3.4 | 0.7 | 0.2 | – | – | –
2 | F[Aib]EGTFTSD[Phe(4-NH2)]([Sar-dK-C22 acyl])SIYLDKQAA[Aib]EFVNWLLAGGPSSGAPPPS-NH2 [Peptide D with C22 acylated (d)Lysine-sarcosine dipeptide prodrug moiety at position 10] | 30.9 | 48.2 | 63.2 | 36 | 57 | 87
3 | F[Aib]EGTFTSD[Phe(4-NH2)]SIYLDKQAA[Aib]EFVNWLLAGGPSSGAPPPS-NH2 (N-terminus assumed; SMILES CC[C@H](C)[C@H](NC(=O)[C@H](CO)NC(=O)[C@H](Cc1ccc(N)cc1)NC(=O)[C@H](CC(=O)O)NC(=O)[C@H](CO)NC(=O)[C@@H](NC(=O)[C@H](Cc1ccccc1)NC(=O)[C@@H](NC(=O)CNC(=O)[C@H](CCC(=O)O)NC(=O)C(C)(C)NC(=O)[C@@H](N)Cc1ccccc1)[C@@H](C)O)[C@@H](C)O)C(=O)N[C@@H](Cc1ccc(O)cc1)C(=O)N[C@@H](CC(C)C)C(=O)N[C@@H](CC(=O)O)C(=O)N[C@@H](CCCCN)C(=O)N[C@@H](CCC(N)=O)C(=O)N[C@@H](C)C(=O)N[C@@H](C)C(=O)NC(C)(C)C(=O)N[C@@H](CCC(=O)O)C(=O)N[C@@H](Cc1ccccc1)C(=O)N[C@H](C(=O)N[C@@H](CC(N)=O)C(=O)N[C@@H](Cc1c[nH]c2ccccc12)C(=O)N[C@@H](CC(C)C)C(=O)N[C@@H](CC(C)C)C(=O)N[C@@H](C)C(=O)NCC(=O)NCC(=O)N1CCC[C@H]1C(=O)N[C@@H](CO)C(=O)N[C@@H](CO)C(=O)NCC(=O)N[C@@H](C)C(=O)N1CCC[C@H]1C(=O)N1CCC[C@H]1C(=O)N1CCC[C@H]1C(=O)N[C@@H](CO)C(N)=O)C(C)C) [Peptide D (parent peptide, lacking acylation and lacking a dipeptide prodrug moiety)] | 85.2 | 84.1 | 72.8 | – | – | –
4 | F[Aib]EGTFTSD[Phe(4-NH2)]([Lys-C22 acyl])SIYLDKQAA[Aib]EFVNWLLAGGPSSGAPPPS-NH2 (also: acylated amino group of the Lys not given here) | 1.8 | 2.1 | 0.4 | – | – | –
5 | F[Aib]EGTFTSD[Phe(4-NH2)]([Sar-dK-C20 acyl])SIYLDKQAA[Aib]EFVNWLLAGGPSSGAPPPS-NH2 [Peptide D with C20 acylated (d)Lysine-sarcosine dipeptide prodrug moiety at position 10] | 30.9 | 37.8 | 96.9 | 36 | 45 | 133
